Results on one molecule are retold here after publication PMC11877715, “NONO regulates m^5C modification and alternative splicing of PTEN mRNAs to drive gastric cancer progression” (Journal of Experimental & Clinical Cancer Research : CR, 2025).

This test addresses T1, purified HA-NSUN2 (human, UniProt Q08J23 1-767).
T1 construct: NSUN2, human, in p-GEX-4T-1; The plasmid is called GST-HA-NSUN2, the protein in the assay HA-NSUN2; also called GST-HA-NSUN2; HA-NSUN2 fusion protein; source: E. coli, purified (prepared 'as described previously')
The test is described as follows: pull-down; Called GST pull-down; about 100 µg GST-Flag-NONO and HA-NSUN2 incubated overnight with anti-Flag antibody at 4 °C, protein A/G magnetic beads 1 h at room temperature, low-pH elution, Western blot. As to conditions: both partners purified.

T1 sequence (Q08J23 whole entry, the tested form may be a part): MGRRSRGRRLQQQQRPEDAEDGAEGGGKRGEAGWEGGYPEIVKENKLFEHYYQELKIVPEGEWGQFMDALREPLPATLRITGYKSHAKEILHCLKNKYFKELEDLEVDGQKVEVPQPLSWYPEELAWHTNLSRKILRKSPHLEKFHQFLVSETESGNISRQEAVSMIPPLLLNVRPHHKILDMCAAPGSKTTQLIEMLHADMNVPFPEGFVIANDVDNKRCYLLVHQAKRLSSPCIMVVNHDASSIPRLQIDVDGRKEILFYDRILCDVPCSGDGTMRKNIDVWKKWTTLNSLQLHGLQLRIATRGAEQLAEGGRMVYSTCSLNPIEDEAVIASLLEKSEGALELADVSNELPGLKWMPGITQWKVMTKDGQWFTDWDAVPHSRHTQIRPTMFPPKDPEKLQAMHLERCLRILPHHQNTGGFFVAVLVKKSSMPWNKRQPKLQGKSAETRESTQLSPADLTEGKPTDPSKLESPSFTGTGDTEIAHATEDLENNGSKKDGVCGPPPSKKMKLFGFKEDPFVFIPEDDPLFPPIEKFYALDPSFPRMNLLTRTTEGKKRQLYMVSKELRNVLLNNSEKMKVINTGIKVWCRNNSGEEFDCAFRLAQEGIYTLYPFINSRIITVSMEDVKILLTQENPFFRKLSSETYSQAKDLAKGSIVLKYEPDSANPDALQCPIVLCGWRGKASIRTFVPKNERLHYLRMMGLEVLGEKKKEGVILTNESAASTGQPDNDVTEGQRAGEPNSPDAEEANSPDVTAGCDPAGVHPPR

B1: GST-Flag-NONO (natural protein, human, UniProt Q15233 1-471, looked up)
chain: MQSNKTFNLEKQNHTPRKHHQHHHQQQHHQQQQQQPPPPPIPANGQQASSQNEGLTIDLKNFRKPGEKTFTQRSRLFVGNLPPDITEEEMRKLFEKYGKAGEVFIHKDKGFGFIRLETRTLAEIAKVELDNMPLRGKQLRVRFACHSASLTVRNLPQYVSNELLEEAFSVFGQVERAVVIVDDRGRPSGKGIVEFSGKPAARKALDRCSEGSFLLTTFPRPVTVEPMDQLDDEEGLPEKLVIKNQQFHKEREQPPRFAQPGSFEYEYAMRWKALIEMEKQQQDQVDRNIKEAREKLEMEMEAARHEHQVMLMRQDLMRRQEELRRMEELHNQEVQKRKQLELRQEEERRRREEEMRRQQEEMMRRQQEGFKGTFPDAREQEIRMGQMAMGGAMGINNRGAMPPAPVPAGTPAPPGPATMMPDGTLGLTPPTTERFGQAATMEGIGAIGGTPPAFNRAAPGAEFAPNKRRRY
notes: NONO, human, FL, in p-GEX-4T-1; also called GST-tagged Flag-NONO; FLAG-NONO-FL in p-GEX-4T-1; source: E. coli, purified (prepared 'as described previously')
Regarding B1, the binding result is reported as “binds”.
